Assay results taken from publication PMC9825669.
Several values for one entry are separate records, joined by “and”; a condition that tells them apart may be missing. Identical values can stand only once.

Target: LtMCC α6β6 dodecamer (L. tarentolae (endogenous in L. tarentolae TATII/UC cells))
Test: filament lengths counted on cryoEM micrographs

LtMCC α6β6 dodecamer (complex)
stoichiometry N: 4 and 6
